Data published in patent US20190117753A1 (VIRGINIA COMMONWEALTH UNIVERSITY, published 2019).

Target: T1, sLe^x-capped PSGL-1 on transfected Chinese hamster ovary cells (PSGL-1 CHO cells) (UniProt Q14242 42-412, sLe^x-capped (sialylated and fucosylated) glycans (so in the source))
T1 construct: whole, on cells; also called sialylated PSGL-1; sLe^x-modified PSGL-1
T1 sequence: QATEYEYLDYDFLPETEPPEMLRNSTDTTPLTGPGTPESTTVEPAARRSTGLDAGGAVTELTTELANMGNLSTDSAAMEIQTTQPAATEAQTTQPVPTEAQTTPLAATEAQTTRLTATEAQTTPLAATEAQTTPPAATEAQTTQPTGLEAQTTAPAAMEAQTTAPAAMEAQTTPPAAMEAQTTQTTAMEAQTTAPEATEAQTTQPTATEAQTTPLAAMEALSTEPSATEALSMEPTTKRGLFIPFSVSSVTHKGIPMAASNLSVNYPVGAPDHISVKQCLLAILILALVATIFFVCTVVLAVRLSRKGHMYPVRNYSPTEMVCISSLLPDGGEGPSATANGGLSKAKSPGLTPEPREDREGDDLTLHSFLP
Experiment: PSGL-1 CHO cells preincubated with GST-OmpA; competitor: Aph organisms (data not shown)

B1: GST-OmpA (N-terminal glutathione-S-transferase-tagged A. phagocytophilum OmpA, excluding the signal sequence) (other)
chain: CGTLLPDSNVGVGRHDLGSHRSVAFAKKVEKVYFDIGKYDLKGPGKKVILELVEQLRQDDSMYLVVIGHADATGTEEYSLALGEKRANAVKQFIIGCDKSLAPRVTTQSRGKAEPEVLVYSTDAQEVEKANAQNRRAVIVVEFAHIPRSGVADMHAPVASSITSENSNASAEGEDMEASEFSSAIAN
notes: also called GST-ApOmpA; GST-tagged Aph OmpA; not shown: glutathione-S-transferase (GST) tag, N-terminal, from the pDest-15 vector
**Q.** Which “reduction of Aph binding to sLe^x-modified PSGL-1 relative to GST alone” value does the source give for B1 here?
**A.** ~60%
